The supplement of paper PMC10065799, “High-throughput profiling of sequence recognition by tyrosine kinases and SH2 domains using bacterial peptide display” (eLife, 2023)

Columns and labels:
Fyn = Fyn (UniProt P06241); assay: phosphorylation enrichment, bacterial display (enrichment ratio); higher = better substrate or ligand; peptides without Tyr show the background
FGFR3 = FGFR3 (UniProt P22607); assay: as above
c-Abl (mouse) = assay: as above
EPHB2 = EPHB2 (UniProt P29323); assay: as above
Fes = Fes (UniProt P07332); assay: as above
MERTK = MERTK (UniProt Q12866); assay: as above
AncSZ = assay: as above
FGFR1 = FGFR1 (UniProt P11362); assay: as above
Jak2 = Jak2 (UniProt O60674); assay: as above
c-Src = assay: as above
Fer (mouse) = assay: as above
Hck = Hck (UniProt P08631); assay: as above
EPHB1 = EPHB1 (UniProt P54762); assay: as above
SHP2-C SH2 = assay: SH2 binding enrichment of the phosphorylated peptide, bacterial display (enrichment ratio); higher = better substrate or ligand; peptides without Tyr show the background
Grb2 SH2 = Grb2 SH2 (UniProt P62993); assay: as above
c-Src SH2 = assay: as above
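Throughout, for SH2 binding enrichment of the phosphorylated peptide, bacterial display: peptide library displayed on the E. coli surface as eCPX fusions, selected cells deep-sequenced, score is each peptide's frequency after selection divided by its frequency in the input.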
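Throughout, for phosphorylation enrichment, bacterial display: 11-residue human phosphosite peptides and single-mutation variants displayed on the E. coli surface, counted by deep sequencing, each peptide's frequency after selection divided by its frequency in the unselected input library; frequency after pTyr selection over input frequency; kinase dosed for 20-30% of maximal phosphorylation in three min.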

Chain of Grb2 SH2 (P62993 whole entry, looked up): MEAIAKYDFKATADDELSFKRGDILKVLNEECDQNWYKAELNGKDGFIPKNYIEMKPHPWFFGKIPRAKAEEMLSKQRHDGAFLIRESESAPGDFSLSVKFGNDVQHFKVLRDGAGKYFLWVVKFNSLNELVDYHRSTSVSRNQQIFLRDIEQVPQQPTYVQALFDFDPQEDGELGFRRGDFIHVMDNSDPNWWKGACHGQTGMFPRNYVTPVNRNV
Chain of EPHB1 (P54762 whole entry, looked up): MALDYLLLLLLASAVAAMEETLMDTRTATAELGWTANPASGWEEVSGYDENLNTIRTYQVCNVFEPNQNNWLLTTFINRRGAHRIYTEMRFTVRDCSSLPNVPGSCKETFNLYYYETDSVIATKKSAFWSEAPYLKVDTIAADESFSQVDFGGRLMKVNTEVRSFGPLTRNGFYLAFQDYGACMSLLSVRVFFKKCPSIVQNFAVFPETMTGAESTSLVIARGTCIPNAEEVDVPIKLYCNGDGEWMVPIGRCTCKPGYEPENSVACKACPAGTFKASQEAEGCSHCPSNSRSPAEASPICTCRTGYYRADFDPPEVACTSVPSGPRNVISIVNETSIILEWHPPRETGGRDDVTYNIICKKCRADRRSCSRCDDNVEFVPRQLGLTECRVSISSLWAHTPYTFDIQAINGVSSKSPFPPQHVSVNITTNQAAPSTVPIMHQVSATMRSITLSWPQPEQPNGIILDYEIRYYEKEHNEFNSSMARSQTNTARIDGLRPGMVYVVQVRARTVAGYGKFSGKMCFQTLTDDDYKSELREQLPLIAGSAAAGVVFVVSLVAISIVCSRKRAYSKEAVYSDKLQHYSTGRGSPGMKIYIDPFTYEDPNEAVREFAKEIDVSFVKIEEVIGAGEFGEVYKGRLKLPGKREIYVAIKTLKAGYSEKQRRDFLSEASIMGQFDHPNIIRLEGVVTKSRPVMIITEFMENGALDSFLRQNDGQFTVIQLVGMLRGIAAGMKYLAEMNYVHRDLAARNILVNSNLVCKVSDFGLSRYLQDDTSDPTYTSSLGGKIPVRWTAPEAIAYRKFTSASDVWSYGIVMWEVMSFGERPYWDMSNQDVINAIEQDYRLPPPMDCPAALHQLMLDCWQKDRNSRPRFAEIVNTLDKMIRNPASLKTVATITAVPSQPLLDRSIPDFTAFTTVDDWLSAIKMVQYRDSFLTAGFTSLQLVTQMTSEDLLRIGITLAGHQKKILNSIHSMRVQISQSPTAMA
Chain of Fyn (P06241 whole entry, looked up): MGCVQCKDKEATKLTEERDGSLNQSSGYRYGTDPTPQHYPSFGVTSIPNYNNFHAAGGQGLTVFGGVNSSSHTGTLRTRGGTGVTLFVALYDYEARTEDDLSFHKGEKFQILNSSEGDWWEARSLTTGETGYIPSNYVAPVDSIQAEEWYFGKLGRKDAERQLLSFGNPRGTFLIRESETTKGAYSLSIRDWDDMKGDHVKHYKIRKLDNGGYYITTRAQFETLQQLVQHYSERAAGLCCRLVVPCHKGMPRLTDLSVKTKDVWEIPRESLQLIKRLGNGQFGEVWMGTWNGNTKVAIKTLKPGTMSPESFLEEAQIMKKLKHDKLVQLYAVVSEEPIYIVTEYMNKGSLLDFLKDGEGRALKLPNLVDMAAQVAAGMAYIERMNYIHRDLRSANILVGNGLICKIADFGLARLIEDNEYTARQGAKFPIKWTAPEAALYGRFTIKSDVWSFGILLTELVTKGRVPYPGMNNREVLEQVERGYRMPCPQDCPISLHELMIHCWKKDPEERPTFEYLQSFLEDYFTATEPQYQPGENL
Chain of Jak2 (O60674 whole entry, looked up): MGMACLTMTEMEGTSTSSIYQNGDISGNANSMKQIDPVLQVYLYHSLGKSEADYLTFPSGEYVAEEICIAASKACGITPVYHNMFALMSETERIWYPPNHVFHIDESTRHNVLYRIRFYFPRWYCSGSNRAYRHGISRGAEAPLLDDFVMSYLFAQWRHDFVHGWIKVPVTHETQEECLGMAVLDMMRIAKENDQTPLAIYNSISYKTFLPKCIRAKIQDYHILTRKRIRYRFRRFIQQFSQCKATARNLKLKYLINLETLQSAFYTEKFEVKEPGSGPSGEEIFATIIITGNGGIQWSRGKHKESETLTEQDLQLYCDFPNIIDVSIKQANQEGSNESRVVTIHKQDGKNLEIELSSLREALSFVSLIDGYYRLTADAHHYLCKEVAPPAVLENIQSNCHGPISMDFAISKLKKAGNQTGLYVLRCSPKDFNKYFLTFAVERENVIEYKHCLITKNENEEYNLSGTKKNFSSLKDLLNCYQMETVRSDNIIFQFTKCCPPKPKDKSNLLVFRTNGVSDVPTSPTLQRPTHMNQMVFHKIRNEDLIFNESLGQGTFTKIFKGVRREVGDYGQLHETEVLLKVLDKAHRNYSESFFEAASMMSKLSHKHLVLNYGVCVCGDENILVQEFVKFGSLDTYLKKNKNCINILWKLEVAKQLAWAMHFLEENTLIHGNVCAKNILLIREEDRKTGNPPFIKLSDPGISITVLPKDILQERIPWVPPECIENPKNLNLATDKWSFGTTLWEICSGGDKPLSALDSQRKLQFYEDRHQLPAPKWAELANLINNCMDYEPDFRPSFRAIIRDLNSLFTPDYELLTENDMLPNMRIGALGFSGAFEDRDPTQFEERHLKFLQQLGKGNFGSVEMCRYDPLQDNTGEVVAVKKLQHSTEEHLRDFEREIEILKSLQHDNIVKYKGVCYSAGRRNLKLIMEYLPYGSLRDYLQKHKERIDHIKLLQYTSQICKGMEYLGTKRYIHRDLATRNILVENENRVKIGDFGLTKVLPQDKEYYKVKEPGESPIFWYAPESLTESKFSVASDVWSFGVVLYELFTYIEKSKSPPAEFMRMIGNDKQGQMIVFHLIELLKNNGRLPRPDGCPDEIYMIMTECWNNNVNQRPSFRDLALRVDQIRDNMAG
Chain of Fes (P07332 whole entry, looked up): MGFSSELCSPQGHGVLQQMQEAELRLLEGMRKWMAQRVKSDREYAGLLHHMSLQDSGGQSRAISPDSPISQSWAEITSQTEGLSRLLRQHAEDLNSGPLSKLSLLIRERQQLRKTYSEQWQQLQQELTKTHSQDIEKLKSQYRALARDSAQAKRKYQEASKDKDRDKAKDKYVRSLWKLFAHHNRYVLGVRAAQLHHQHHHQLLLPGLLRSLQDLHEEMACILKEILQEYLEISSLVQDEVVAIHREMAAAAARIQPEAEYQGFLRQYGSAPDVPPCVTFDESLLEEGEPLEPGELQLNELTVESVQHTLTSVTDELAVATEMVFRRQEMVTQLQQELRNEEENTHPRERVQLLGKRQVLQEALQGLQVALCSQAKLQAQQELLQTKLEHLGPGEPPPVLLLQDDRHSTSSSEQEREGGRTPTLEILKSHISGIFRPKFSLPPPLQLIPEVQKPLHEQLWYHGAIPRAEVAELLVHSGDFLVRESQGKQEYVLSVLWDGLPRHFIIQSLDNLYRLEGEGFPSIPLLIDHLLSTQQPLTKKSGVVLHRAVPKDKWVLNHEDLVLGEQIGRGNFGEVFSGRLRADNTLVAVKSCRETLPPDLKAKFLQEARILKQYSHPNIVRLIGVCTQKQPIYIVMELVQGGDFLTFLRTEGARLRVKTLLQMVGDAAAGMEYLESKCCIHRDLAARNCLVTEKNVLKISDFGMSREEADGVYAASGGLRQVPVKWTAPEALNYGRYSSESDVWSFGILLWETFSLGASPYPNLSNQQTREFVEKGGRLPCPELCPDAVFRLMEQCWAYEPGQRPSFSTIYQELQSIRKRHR
Chain of EPHB2 (P29323 whole entry, looked up): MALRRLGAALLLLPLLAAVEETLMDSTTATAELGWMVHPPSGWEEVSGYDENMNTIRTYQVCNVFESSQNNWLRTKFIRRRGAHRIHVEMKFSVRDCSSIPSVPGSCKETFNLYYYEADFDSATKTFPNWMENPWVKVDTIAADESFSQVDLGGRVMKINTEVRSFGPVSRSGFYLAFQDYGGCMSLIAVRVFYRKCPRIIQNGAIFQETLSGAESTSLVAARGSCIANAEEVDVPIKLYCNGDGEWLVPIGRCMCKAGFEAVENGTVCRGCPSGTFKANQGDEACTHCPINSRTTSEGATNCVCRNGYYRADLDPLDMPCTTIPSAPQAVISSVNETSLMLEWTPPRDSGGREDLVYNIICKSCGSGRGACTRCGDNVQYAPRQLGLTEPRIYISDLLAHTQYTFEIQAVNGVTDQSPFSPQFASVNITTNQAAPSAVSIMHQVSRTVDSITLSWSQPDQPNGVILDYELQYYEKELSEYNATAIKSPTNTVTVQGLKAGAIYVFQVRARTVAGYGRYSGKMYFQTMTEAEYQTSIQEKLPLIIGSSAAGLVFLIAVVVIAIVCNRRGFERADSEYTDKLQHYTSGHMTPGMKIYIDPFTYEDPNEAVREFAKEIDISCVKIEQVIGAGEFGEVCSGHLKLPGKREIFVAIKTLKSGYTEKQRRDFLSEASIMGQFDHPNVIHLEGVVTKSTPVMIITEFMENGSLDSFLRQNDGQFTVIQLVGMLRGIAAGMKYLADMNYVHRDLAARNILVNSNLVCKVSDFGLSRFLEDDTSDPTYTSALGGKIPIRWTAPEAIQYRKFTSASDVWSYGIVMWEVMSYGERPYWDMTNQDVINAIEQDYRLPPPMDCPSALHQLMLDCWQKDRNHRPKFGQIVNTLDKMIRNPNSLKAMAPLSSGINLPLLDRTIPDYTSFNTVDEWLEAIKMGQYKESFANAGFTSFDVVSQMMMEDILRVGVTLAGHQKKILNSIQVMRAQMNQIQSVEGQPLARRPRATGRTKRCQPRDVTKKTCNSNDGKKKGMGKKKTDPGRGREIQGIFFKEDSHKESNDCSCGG

Sequence | phosphorylation enrichment (Fyn) | phosphorylation enrichment (FGFR3) | phosphorylation enrichment (c-Abl (mouse)) | phosphorylation enrichment (EPHB2) | phosphorylation enrichment (Fes) | phosphorylation enrichment (MERTK) | phosphorylation enrichment (AncSZ) | phosphorylation enrichment (FGFR1) | phosphorylation enrichment (Jak2) | phosphorylation enrichment (c-Src) | phosphorylation enrichment (Fer (mouse)) | phosphorylation enrichment (Hck) | phosphorylation enrichment (EPHB1) | SH2 binding enrichment (SHP2-C SH2) | SH2 binding enrichment (Grb2 SH2) | SH2 binding enrichment (c-Src SH2)
AVISVYDLVVV [PSEN1_Y256_A260V] | 5.2 | 1.02 | 1 | 4.03 | 1.46 | 6.78 | 1.54 | 0.726 | 1.29 | 3.85 | 13.3 | 4.14 | 5.61 | 1.03 | 0.984 | 0.797
AVLALYNSTRD [TGFB1_Y81] | 0.462 | 0.547 | 0.702 | 0.53 | 0.942 | 0.639 | 0.755 | 0.493 | 0.78 | 0.489 | 0.531 | 0.511 | 0.466 | 0.55 | 0.835 | 0.688
AVSEGYKDFRA [CDA_Y79] | 0.441 | 0.542 | 0.602 | 0.456 | 0.689 | 0.449 | 0.602 | 0.519 | 0.553 | 0.338 | 0.341 | 0.452 | 0.386 | 0.554 | 0.687 | 0.385
CATIHYNYMCN [TP53_Y234_T230A] | 0.464 | 0.563 | 0.511 | 1.99 | 0.896 | 0.435 | 0.78 | 0.6 | 0.717 | 0.389 | 0.573 | 0.487 | 0.591 | 3.31 | 1.23 | 6.91
CDTKLYTSAPN [DNTTIP2_Y427] | 0.606 | 0.764 | 0.922 | 0.791 | 1.11 | 0.679 | 1 | 0.595 | 0.936 | 0.65 | 0.694 | 0.776 | 0.626 | 0.607 | 0.808 | 0.387
CEHRGCLYLAI [TEK_Y897_Y897C] | 0.372 | 0.685 | 0.671 | 0.506 | 1.09 | 0.661 | 1.04 | 0.405 | 1.05 | 1.05 | 0.44 | 0.466 | 0.556 | 0.753 | 0.811 | 0.554
CEHRGHLFLAI [TEK_Y897_Y897H_YF] | 0.516 | 0.908 | 0.806 | 0.544 | 1.11 | 0.482 | 1.02 | 0.536 | 0.888 | 0.453 | 0.463 | 0.547 | 0.625 | 1.06 | 1.41 | 0.867
CENCHYPIVPL [LCK_Y25] | 0.463 | 0.58 | 0.567 | 0.485 | 0.749 | 0.479 | 0.698 | 0.542 | 0.643 | 0.454 | 0.588 | 0.463 | 0.63 | 0.58 | 0.943 | 0.841
CHSDDYVHISL [TSC1_Y406] | 0.502 | 1.07 | 0.781 | 0.65 | 1.13 | 0.436 | 1.27 | 1.23 | 0.958 | 0.495 | 0.491 | 0.554 | 0.768 | 0.593 | 0.762 | 0.539
CKLVDYDSARH [BIN1_Y150_R145C] | 0.463 | 0.624 | 0.61 | 0.447 | 0.909 | 0.381 | 0.777 | 0.395 | 0.66 | 0.372 | 0.401 | 0.414 | 0.505 | 0.592 | 0.845 | 0.564
CKLYQYYLDHL [ATRX_Y1849] | 0.587 | 1.54 | 1.17 | 1.54 | 1.65 | 2.12 | 1.74 | 1.44 | 1.54 | 2.05 | 0.758 | 0.698 | 2.18 | 0.523 | 0.731 | 0.391
CNLDTYQKRLR [PLA2G2D_Y126_R121C] | 0.463 | 0.462 | 0.592 | 0.582 | 0.624 | 0.434 | 0.65 | 0.532 | 0.563 | 0.473 | 0.395 | 0.475 | 0.463 | 0.78 | 0.974 | 0.629
CQAHGYFCQPI [STK11_Y156_L160P] | 0.329 | 0.538 | 0.783 | 0.436 | 0.678 | 0.407 | 0.867 | 0.646 | 0.615 | 0.404 | 0.362 | 0.357 | 0.35 | 0.812 | 1.15 | 0.907
CRAVKYLQMVR [AVPR2_Y117_G122R] | 0.459 | 0.527 | 0.733 | 0.467 | 0.878 | 0.331 | 0.882 | 0.436 | 1.2 | 0.401 | 0.455 | 0.417 | 0.499 | 1.25 | 1.01 | 0.62
CSEEMYCLMLQ [RET_Y981_R982C] | 1.08 | 2.76 | 1.25 | 0.794 | 1.3 | 4.4 | 3.36 | 3.5 | 1.22 | 2.26 | 6.9 | 1.31 | 1.02 | 0.949 | 0.943 | 0.722
CSTIHYNFMCN [TP53_Y234_T230S_YF] | 0.476 | 0.418 | 0.461 | 0.54 | 0.693 | 0.385 | 1.2 | 0.458 | 0.573 | 0.468 | 0.423 | 0.375 | 0.369 | 1.91 | 1.4 | 2.44
CTTIFYNFMCN [TP53_Y234_H233Y_YF] | 0.592 | 1.12 | 0.597 | 0.634 | 1.42 | 1.93 | 1.12 | 1.05 | 1.28 | 1.69 | 1.05 | 0.562 | 0.686 | 1.8 | 2.09 | 1.45
CTTIHQNYMCN [TP53_Y234_Y234Q] | 0.361 | 0.56 | 0.695 | 0.432 | 0.917 | 0.503 | 0.735 | 0.463 | 0.796 | 0.414 | 0.387 | 0.41 | 0.536 | 1.13 | 0.923 | 0.982
CTTIHYNFMCI [TP53_Y234_N239I_YF] | 0.477 | 0.707 | 0.809 | 0.673 | 1.26 | 0.392 | 1.05 | 0.598 | 0.969 | 0.434 | 0.706 | 0.529 | 0.621 | 1.57 | 1.71 | 1.72
CTTIHYNFMCS [TP53_Y234_N239S_YF] | 0.502 | 0.799 | 0.548 | 0.507 | 0.902 | 0.5 | 0.846 | 0.572 | 0.823 | 0.571 | 0.495 | 0.603 | 0.634 | 1.96 | 1.79 | 2.25
CTTIHYNFMCT [TP53_Y234_N239T_YF] | 0.459 | 0.752 | 0.839 | 0.485 | 1.01 | 0.419 | 1.06 | 0.538 | 0.997 | 0.551 | 0.501 | 0.501 | 0.54 | 1.99 | 2.04 | 1.66
CTTIHYNFRCN [TP53_Y234_M237R_YF] | 0.471 | 0.637 | 0.584 | 0.499 | 0.804 | 0.386 | 0.763 | 0.487 | 0.56 | 0.469 | 0.462 | 0.439 | 0.536 | 1.67 | 1.61 | 1.48
CTTIHYNYMRN [TP53_Y234_C238R] | 0.52 | 0.577 | 0.515 | 0.502 | 0.858 | 0.468 | 0.805 | 0.521 | 0.673 | 0.501 | 0.543 | 0.546 | 0.605 | 1.31 | 1.17 | 1.83
CTTVHYNYMCN [TP53_Y234_I232V] | 0.448 | 0.622 | 0.557 | 0.496 | 0.915 | 0.469 | 0.816 | 0.52 | 0.768 | 0.492 | 0.77 | 0.468 | 0.542 | 3.24 | 1.08 | 6.3
CVAARYMDVKG [WFIKKN2_Y93] | 0.419 | 0.549 | 0.56 | 0.516 | 0.887 | 0.435 | 0.655 | 0.445 | 0.696 | 0.313 | 0.442 | 0.43 | 0.535 | 0.52 | 0.784 | 1.16
DDKEFYSVHNK [MET_Y1235_Y1230D_YF] | 0.413 | 0.571 | 0.828 | 0.527 | 0.99 | 0.422 | 0.882 | 0.525 | 0.854 | 0.531 | 0.47 | 0.453 | 0.488 | 0.621 | 0.831 | 0.486
DEDYLCREELA [POR_Y575_Y575C] | 0.878 | 1.43 | 0.737 | 0.725 | 1.54 | 0.676 | 1.68 | 0.683 | 0.929 | 0.556 | 0.812 | 0.99 | 0.842 | 0.917 | 0.948 | 0.444
DEEEEYEYMNR [ERBB3_Y1197_D1194E] | 0.567 | 0.665 | 0.631 | 0.625 | 1.17 | 0.404 | 1.17 | 0.536 | 1 | 0.408 | 0.466 | 0.484 | 0.493 | 0.645 | 0.817 | 0.526
DELDKYSEVLK [TPM1_Y60_A63V] | 0.599 | 0.923 | 0.907 | 0.603 | 1.66 | 0.48 | 1.49 | 0.616 | 1.37 | 0.62 | 0.624 | 0.558 | 0.667 | 0.665 | 0.837 | 1.72
